The numbers were not newly measured in PMC5540906, which cites them from elsewhere.

What is called Kd is the constant that tells how readily two partners part at equilibrium.

Series [1] addresses ClpP tetradecamer (Escherichia coli) (UniProt P0A6G7). In words: activity measurements.
Series [2] addresses DnaK (Thermus thermophilus) (UniProt Q72IK5).

Values joined by “and” are separate entries in the source; they are usually repeats but may differ in a detail not shown here. Equal entries are not always repeated.

Chain of UniProt Q72IK5 (Q72IK5 whole entry): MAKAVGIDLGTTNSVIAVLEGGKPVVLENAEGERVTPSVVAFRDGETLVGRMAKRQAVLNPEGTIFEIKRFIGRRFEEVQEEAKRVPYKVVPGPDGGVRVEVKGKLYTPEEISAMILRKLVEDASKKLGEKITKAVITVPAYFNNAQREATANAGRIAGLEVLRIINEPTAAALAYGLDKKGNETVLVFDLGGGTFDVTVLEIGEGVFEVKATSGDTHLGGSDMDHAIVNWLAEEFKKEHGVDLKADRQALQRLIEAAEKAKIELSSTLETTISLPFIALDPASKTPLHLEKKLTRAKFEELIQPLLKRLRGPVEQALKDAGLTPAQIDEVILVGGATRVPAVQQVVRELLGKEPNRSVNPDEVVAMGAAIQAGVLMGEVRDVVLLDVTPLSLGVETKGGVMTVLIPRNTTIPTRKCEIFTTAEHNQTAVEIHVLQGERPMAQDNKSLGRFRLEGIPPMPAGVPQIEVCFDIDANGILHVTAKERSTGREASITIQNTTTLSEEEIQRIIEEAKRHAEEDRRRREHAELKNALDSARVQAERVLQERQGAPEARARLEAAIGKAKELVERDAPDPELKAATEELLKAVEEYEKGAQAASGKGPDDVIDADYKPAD
Chain of UniProt P0A6G7 (P0A6G7 15-207): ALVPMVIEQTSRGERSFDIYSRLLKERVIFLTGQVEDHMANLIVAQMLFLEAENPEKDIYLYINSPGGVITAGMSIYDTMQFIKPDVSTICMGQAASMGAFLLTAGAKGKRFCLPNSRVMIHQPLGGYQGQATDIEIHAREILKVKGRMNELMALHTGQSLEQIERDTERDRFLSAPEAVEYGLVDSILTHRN

On to ClpA hexamer (from UniProt P0ABH9), for which the Kd in series [1] is 0.004 µM. Take ClpB (from UniProt Q72IK9): the Kd in series [2] was 17 µM and 25 µM.
